Measurements reported in the Immune Epitope Database (IEDB).

Columns and labels:
HLA-B*15:02 = test: IEDB peptide-MHC binding, purified MHC/direct/fluorescence; filed as Kd, often an IC50 or EC50 that approximates it; ≥ and ≤ were set here for values at or beyond the usual limits of such assays; settings: source organism: dengue virus type 1
HLA-B*46:01 = test: as above; settings: source organism: Dengue virus
HLA-A*30:02 = test: IEDB peptide-MHC binding, purified MHC/competitive/radioactivity; filed as Kd, often an IC50 or EC50 that approximates it; ≥ and ≤ were set here for values at or beyond the usual limits of such assays; settings: source organism: Dengue virus 1 Brazil/97-11/1997
HLA-C*15:02 = test: IEDB peptide-MHC binding, purified MHC/direct/fluorescence; filed as Kd, often an IC50 or EC50 that approximates it; ≥ and ≤ were set here for values at or beyond the usual limits of such assays; settings: source organism: Bacillus anthracis str. A0488
HLA-A*03:19 = test: IEDB peptide-MHC binding, purified MHC/competitive/fluorescence; filed as Kd, often an IC50 or EC50 that approximates it; ≥ and ≤ were set here for values at or beyond the usual limits of such assays; settings: source organism: Bacillus anthracis str. A0488
HLA-A*24:03 = test: as above; settings: source organism: Bacillus anthracis str. A0488
HLA-A*32:07 = test: as above; settings: source organism: Bacillus anthracis str. A0488
HLA-B*15:42 = test: as above; settings: source organism: Bacillus anthracis str. A0488
HLA-B*27:20 = test: as above; settings: source organism: Bacillus anthracis str. A0488
HLA-B*40:13 = test: as above; settings: source organism: Bacillus anthracis str. A0488
HLA-B*45:06 = test: as above; settings: source organism: Bacillus anthracis str. A0488
HLA-B*83:01 = test: as above; settings: source organism: Bacillus anthracis str. A0488
HLA-C*06:02 = test: as above; settings: source organism: Bacillus anthracis str. A0488

## KLEGKIVQY
HLA-B*15:02
  Kd: ≥ 20 µM
HLA-B*46:01
  Kd: ≥ 20 µM
HLA-A*30:02
  Kd: 0.833 µM

## RFFKHFMSL
HLA-C*15:02
  Kd: 1.57 µM
HLA-A*03:19
  Kd: 0.0461 µM
HLA-A*24:03
  Kd: ≤ 0.0001 µM
HLA-A*32:07
  Kd: 0.0004 µM
HLA-B*15:42
  Kd: ≥ 5 µM
HLA-B*27:20
  Kd: 0.0161 µM
HLA-B*40:13
  Kd: 0.0052 µM
HLA-B*45:06
  Kd: ≥ 5 µM
HLA-B*83:01
  Kd: ≥ 5 µM
HLA-C*06:02
  Kd: 1.19 µM
